In US20150164996A1 (Sanofi, published 2015):
Where two headings read alike, the source gives them in different places. Square brackets hold non-standard residues; d marks the D form. Ends that are not written are not given here. Aib = CC(C)(N)C(=O)O

Columns and labels:
Experiment in all cases: cell-based or functional assay
[1] = molecular target: human GLP-1 receptor (human) (UniProt P43220)
[2] = molecular target: human glucagon receptor (human) (UniProt P47871)
human GIP receptor [3] = molecular target: T1, human GIP receptor (human, UniProt P48546 22-466)
T1 sequence (looked up): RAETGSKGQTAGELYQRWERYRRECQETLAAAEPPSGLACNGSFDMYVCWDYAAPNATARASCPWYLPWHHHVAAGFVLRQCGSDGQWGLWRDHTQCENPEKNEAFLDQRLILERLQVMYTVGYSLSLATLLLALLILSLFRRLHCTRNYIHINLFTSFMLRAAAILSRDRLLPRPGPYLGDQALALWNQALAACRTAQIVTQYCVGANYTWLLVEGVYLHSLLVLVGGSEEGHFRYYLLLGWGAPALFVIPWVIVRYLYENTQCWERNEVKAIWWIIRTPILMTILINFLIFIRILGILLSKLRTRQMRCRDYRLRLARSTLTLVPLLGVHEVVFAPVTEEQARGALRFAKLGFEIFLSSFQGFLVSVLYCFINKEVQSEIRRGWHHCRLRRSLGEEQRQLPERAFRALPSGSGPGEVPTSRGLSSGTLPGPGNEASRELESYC

human GLP-1 receptor [4] = molecular target: T2, human GLP-1 receptor (human, UniProt P43220 24-463)
Target sequence in this assay (P43220 24-463): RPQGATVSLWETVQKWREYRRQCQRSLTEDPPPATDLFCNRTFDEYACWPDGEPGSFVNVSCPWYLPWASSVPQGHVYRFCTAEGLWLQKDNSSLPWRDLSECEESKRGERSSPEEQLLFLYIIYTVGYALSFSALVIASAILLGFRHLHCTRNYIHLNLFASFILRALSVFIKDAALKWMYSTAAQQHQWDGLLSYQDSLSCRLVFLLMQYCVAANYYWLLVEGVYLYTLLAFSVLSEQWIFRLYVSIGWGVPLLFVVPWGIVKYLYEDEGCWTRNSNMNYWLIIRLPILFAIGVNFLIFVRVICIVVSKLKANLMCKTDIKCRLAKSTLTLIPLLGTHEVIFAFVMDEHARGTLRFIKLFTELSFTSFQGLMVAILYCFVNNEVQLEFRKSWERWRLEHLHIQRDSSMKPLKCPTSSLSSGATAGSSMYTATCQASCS

human GIP receptor [5] = molecular target: T1, human GIP receptor; remark: listed apart in the source
human GLP-1 receptor [6] = molecular target: T2, human GLP-1 receptor; remark: listed apart in the source
human glucagon receptor = human glucagon receptor (human, UniProt P47871 26-477)
human glucagon receptor, sequence (P47871 26-477): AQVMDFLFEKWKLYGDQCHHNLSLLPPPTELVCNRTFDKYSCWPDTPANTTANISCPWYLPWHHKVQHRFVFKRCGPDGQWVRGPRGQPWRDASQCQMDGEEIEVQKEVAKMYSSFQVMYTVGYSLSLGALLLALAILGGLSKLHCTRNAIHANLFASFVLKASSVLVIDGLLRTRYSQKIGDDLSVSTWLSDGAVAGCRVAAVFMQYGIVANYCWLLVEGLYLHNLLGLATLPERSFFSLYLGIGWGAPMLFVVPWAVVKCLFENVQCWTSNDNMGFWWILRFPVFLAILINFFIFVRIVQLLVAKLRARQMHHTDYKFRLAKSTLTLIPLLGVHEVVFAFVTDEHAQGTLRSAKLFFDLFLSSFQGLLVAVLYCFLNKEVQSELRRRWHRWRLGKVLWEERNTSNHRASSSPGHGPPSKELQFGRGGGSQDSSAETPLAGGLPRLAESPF

human GLP-1 receptor (human), sequence (P43220 24-463): as the sequence (P43220 24-463) above
human glucagon receptor (human), sequence (P47871 26-477): as the sequence (P47871 26-477) above

Molecule	EC50 hGLP-1 R [pM] (cAMP formation, HTRF, HEK-293 cells) [1]	EC50 hGlucagon R [pM] (cAMP formation, HTRF, HEK-293 cells) [2]	EC50 hGIP R [pM] (cAMP formation, HTRF, HEK-293 cells) (human GIP receptor [3])	EC50 hGLP-1 R [pM] (cAMP formation, HTRF, HEK-293 cells) (human GLP-1 receptor [4])	EC50 hGIP R [pM] (cAMP formation, HTRF, HEK-293 cells) (human GIP receptor [5])	EC50 hGLP-1 R [pM] (cAMP formation, HTRF, HEK-293 cells) (human GLP-1 receptor [6])	EC50 hGLUC R [pM] (cAMP formation, HTRF, HEK-293 cells) (human glucagon receptor)
exendin-4 (peptide)	0.4 pM	> 1e+07 pM	–	–	–	–	–
YAEGTFTSDVSIYLEGQAAKEFIAWLVKGR (ends and bridges not checked) [Tyr(1)Ile(12)-GLP1]	–	–	3660 pM	5 pM	–	–	–
Y[Aib]EGTFTSDLSKLLEKEAVRLFIEWLKAGGPSSGAPPPS-NH2 (N-terminus assumed; SMILES CC[C@H](C)[C@H](NC(=O)[C@H](Cc1ccccc1)NC(=O)[C@H](CC(C)C)NC(=O)[C@H](CCCNC(=N)N)NC(=O)[C@@H](NC(=O)[C@H](C)NC(=O)[C@H](CCC(=O)O)NC(=O)[C@H](CCCCN)NC(=O)[C@H](CCC(=O)O)NC(=O)[C@H](CC(C)C)NC(=O)[C@H](CC(C)C)NC(=O)[C@H](CCCCN)NC(=O)[C@H](CO)NC(=O)[C@H](CC(C)C)NC(=O)[C@H](CC(=O)O)NC(=O)[C@H](CO)NC(=O)[C@@H](NC(=O)[C@H](Cc1ccccc1)NC(=O)[C@@H](NC(=O)CNC(=O)[C@H](CCC(=O)O)NC(=O)C(C)(C)NC(=O)[C@@H](N)Cc1ccc(O)cc1)[C@@H](C)O)[C@@H](C)O)C(C)C)C(=O)N[C@@H](CCC(=O)O)C(=O)N[C@@H](Cc1c[nH]c2ccccc12)C(=O)N[C@@H](CC(C)C)C(=O)N[C@@H](CCCCN)C(=O)N[C@@H](C)C(=O)NCC(=O)NCC(=O)N1CCC[C@H]1C(=O)N[C@@H](CO)C(=O)N[C@@H](CO)C(=O)NCC(=O)N[C@@H](C)C(=O)N1CCC[C@H]1C(=O)N1CCC[C@H]1C(=O)N1CCC[C@H]1C(=O)N[C@@H](CO)C(N)=O) [SEQ ID NO: 8]	–	–	–	–	2.3 pM	1.2 pM	79000 pM
Y[Aib]EGTFTSDLSKLLDKEAVRLFIEWLKAGGPSSGAPPPS-NH2 (N-terminus assumed; SMILES CC[C@H](C)[C@H](NC(=O)[C@H](Cc1ccccc1)NC(=O)[C@H](CC(C)C)NC(=O)[C@H](CCCNC(=N)N)NC(=O)[C@@H](NC(=O)[C@H](C)NC(=O)[C@H](CCC(=O)O)NC(=O)[C@H](CCCCN)NC(=O)[C@H](CC(=O)O)NC(=O)[C@H](CC(C)C)NC(=O)[C@H](CC(C)C)NC(=O)[C@H](CCCCN)NC(=O)[C@H](CO)NC(=O)[C@H](CC(C)C)NC(=O)[C@H](CC(=O)O)NC(=O)[C@H](CO)NC(=O)[C@@H](NC(=O)[C@H](Cc1ccccc1)NC(=O)[C@@H](NC(=O)CNC(=O)[C@H](CCC(=O)O)NC(=O)C(C)(C)NC(=O)[C@@H](N)Cc1ccc(O)cc1)[C@@H](C)O)[C@@H](C)O)C(C)C)C(=O)N[C@@H](CCC(=O)O)C(=O)N[C@@H](Cc1c[nH]c2ccccc12)C(=O)N[C@@H](CC(C)C)C(=O)N[C@@H](CCCCN)C(=O)N[C@@H](C)C(=O)NCC(=O)NCC(=O)N1CCC[C@H]1C(=O)N[C@@H](CO)C(=O)N[C@@H](CO)C(=O)NCC(=O)N[C@@H](C)C(=O)N1CCC[C@H]1C(=O)N1CCC[C@H]1C(=O)N1CCC[C@H]1C(=O)N[C@@H](CO)C(N)=O) [SEQ ID NO: 9]	–	–	–	–	13 pM	2.2 pM	149000 pM
Y[Aib]EGTFTSDLSILLEEEAVRLFIEWLKAGGPSSGAPPPS-NH2 (N-terminus assumed; SMILES CC[C@H](C)[C@H](NC(=O)[C@H](CO)NC(=O)[C@H](CC(C)C)NC(=O)[C@H](CC(=O)O)NC(=O)[C@H](CO)NC(=O)[C@@H](NC(=O)[C@H](Cc1ccccc1)NC(=O)[C@@H](NC(=O)CNC(=O)[C@H](CCC(=O)O)NC(=O)C(C)(C)NC(=O)[C@@H](N)Cc1ccc(O)cc1)[C@@H](C)O)[C@@H](C)O)C(=O)N[C@@H](CC(C)C)C(=O)N[C@@H](CC(C)C)C(=O)N[C@@H](CCC(=O)O)C(=O)N[C@@H](CCC(=O)O)C(=O)N[C@@H](CCC(=O)O)C(=O)N[C@@H](C)C(=O)N[C@H](C(=O)N[C@@H](CCCNC(=N)N)C(=O)N[C@@H](CC(C)C)C(=O)N[C@@H](Cc1ccccc1)C(=O)N[C@H](C(=O)N[C@@H](CCC(=O)O)C(=O)N[C@@H](Cc1c[nH]c2ccccc12)C(=O)N[C@@H](CC(C)C)C(=O)N[C@@H](CCCCN)C(=O)N[C@@H](C)C(=O)NCC(=O)NCC(=O)N1CCC[C@H]1C(=O)N[C@@H](CO)C(=O)N[C@@H](CO)C(=O)NCC(=O)N[C@@H](C)C(=O)N1CCC[C@H]1C(=O)N1CCC[C@H]1C(=O)N1CCC[C@H]1C(=O)N[C@@H](CO)C(N)=O)[C@@H](C)CC)C(C)C) [SEQ ID NO: 11]	–	–	–	–	0.9 pM	1.4 pM	529000 pM
Y[Aib]EGTFTSDLSKLLEEEAVRLFIEWLKAGGPSSGAPPPS-NH2 (N-terminus assumed; SMILES CC[C@H](C)[C@H](NC(=O)[C@H](Cc1ccccc1)NC(=O)[C@H](CC(C)C)NC(=O)[C@H](CCCNC(=N)N)NC(=O)[C@@H](NC(=O)[C@H](C)NC(=O)[C@H](CCC(=O)O)NC(=O)[C@H](CCC(=O)O)NC(=O)[C@H](CCC(=O)O)NC(=O)[C@H](CC(C)C)NC(=O)[C@H](CC(C)C)NC(=O)[C@H](CCCCN)NC(=O)[C@H](CO)NC(=O)[C@H](CC(C)C)NC(=O)[C@H](CC(=O)O)NC(=O)[C@H](CO)NC(=O)[C@@H](NC(=O)[C@H](Cc1ccccc1)NC(=O)[C@@H](NC(=O)CNC(=O)[C@H](CCC(=O)O)NC(=O)C(C)(C)NC(=O)[C@@H](N)Cc1ccc(O)cc1)[C@@H](C)O)[C@@H](C)O)C(C)C)C(=O)N[C@@H](CCC(=O)O)C(=O)N[C@@H](Cc1c[nH]c2ccccc12)C(=O)N[C@@H](CC(C)C)C(=O)N[C@@H](CCCCN)C(=O)N[C@@H](C)C(=O)NCC(=O)NCC(=O)N1CCC[C@H]1C(=O)N[C@@H](CO)C(=O)N[C@@H](CO)C(=O)NCC(=O)N[C@@H](C)C(=O)N1CCC[C@H]1C(=O)N1CCC[C@H]1C(=O)N1CCC[C@H]1C(=O)N[C@@H](CO)C(N)=O) [SEQ ID NO: 10]	–	–	–	–	1.3 pM	1 pM	137000 pM
